From patent US20250340635A1 (HEFEI TG IMMUNOPHARMA, published 2025)

B1: murine 10D10 antibody (antibody, mouse IgG2a, kappa)
heavy: QVQLQQPGAELVRPGASVRLSCKASGYTFTTYWMHWVKLRPGQGFEWIGEINPGNGGTNYNEKFKRKATLTVDKSSSTAYMQLSSLTSEDSAVYYCAIRLRFALDYWGQGTSVTVSSAKTTAPSVYPLAPVCGDTTGSSVTLGCLVKGYFPEPVTLTWNSGSLSSGVHTFPAVLQSDLYTLSSSVTVTSSTWPSQSITCNVAHPASSTKVDKKIEPRGPTIKPCPPCKCPAPNLLGGPSVFIFPPKIKDVLMISLSPIVTCVVVDVSEDDPDVQISWFVNNVEVHTAQTQTHREDYNSTLRVVSALPIQHQDWMSGKEFKCKVNNKDLPAPIERTISKPKGSVRAPQVYVLPPPEEEMTKKQVTLTCMVTDFMPEDIYVEWTNNGKTELNYKNTEPVLDSDGSYFMYSKLRVEKKNWVERNSYSCSVVHEGLHNHHTTKSFSRTPGK
light: DIQMTQTTSSLSASLGDRVTISCRASQDVRNFLNWFQQKPDGTVKLLIYFTSRLHSGVPSRFSGSGSGTDYSLTISNLEQEDIATYFCQQGNTLPPTFGGGTKLEIKRADAAPTVSIFPPSSEQLTSGGASVVCFLNNFYPKDINVKWKIDGSERQNGVLNSWTDQDSKDSTYSMSSTLTLTKDEYERHNSYTCEATHKTSTSPIVKSFNRNEC
notes: Murine monoclonal antibody from a hybridoma
B2: murine 3B9 antibody (antibody, mouse IgG2a, kappa)
heavy: EVKLVESGGGLVKPGGSLKLSCAPFGFTFSSYAMSWVRQTPEKRLEWVASISSGGITYYPDSVKGRFTISRDNVRNILNLQMSSLRSEDTAMYYCVRGFLTSYWGQGTLVTVSAAKTTAPSVYPLAPVCGDTTGSSVTLGCLVKGYFPEPVTLTWNSGSLSSGVHTFPAVLQSDLYTLSSSVTVTSSTWPSQSITCNVAHPASSTKVDKKIEPRGPTIKPCPPCKCPAPNLLGGPSVFIFPPKIKDVLMISLSPIVTCVVVDVSEDDPDVQISWFVNNVEVHTAQTQTHREDYNSTLRVVSALPIQHQDWMSGKEFKCKVNNKDLPAPIERTISKPKGSVRAPQVYVLPPPEEEMTKKQVTLTCMVTDFMPEDIYVEWTNNGKTELNYKNTEPVLDSDGSYFMYSKLRVEKKNWVERNSYSCSVVHEGLHNHHTTKSFSRTPGK
light: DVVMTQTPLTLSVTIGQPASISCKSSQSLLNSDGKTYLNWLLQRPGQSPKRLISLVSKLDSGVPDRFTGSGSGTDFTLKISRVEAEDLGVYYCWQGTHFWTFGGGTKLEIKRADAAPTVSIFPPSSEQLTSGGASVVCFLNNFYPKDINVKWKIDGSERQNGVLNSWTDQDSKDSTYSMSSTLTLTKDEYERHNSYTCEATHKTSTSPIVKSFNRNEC
notes: as for B1
B3: murine 10E10 antibody (antibody, mouse IgG2a, kappa)
heavy: QVQLQQSGDDLVKPGASVKLSCKASGYTFTSYWINWIKQRPGQGLEWIGRVVPGSGRTYYNEIFKGKAILTVDSYSNTAYIQLRSVSSEDSAVYFCARVGGYWDYWGQGITLTVSSAKTTAPSVYPLAPVCGDTTGSSVTLGCLVKGYFPEPVTLTWNSGSLSSGVHTFPAVLQSDLYTLSSSVTVTSSTWPSQSITCNVAHPASSTKVDKKIEPRGPTIKPCPPCKCPAPNLLGGPSVFIFPPKIKDVLMISLSPIVTCVVVDVSEDDPDVQISWFVNNVEVHTAQTQTHREDYNSTLRVVSALPIQHQDWMSGKEFKCKVNNKDLPAPIERTISKPKGSVRAPQVYVLPPPEEEMTKKQVTLTCMVTDFMPEDIYVEWTNNGKTELNYKNTEPVLDSDGSYFMYSKLRVEKKNWVERNSYSCSVVHEGLHNHHTTKSFSRTPGK
light: QIVLSQSPAILSASPGEKVTMACRASSSVNYIHWYQQRPGSSPKPWIYATSSLASGVPARFSGSGSGTSYSLTISRVEAEDAATYYCQQWSSNPYTFGGGTKLEMKRADAAPTVSIFPPSSEQLTSGGASVVCFLNNFYPKDINVKWKIDGSERQNGVLNSWTDQDSKDSTYSMSSTLTLTKDEYERHNSYTCEATHKTSTSPIVKSFNRNEC
notes: as for B1
B4: human-murine chimeric 3B9 antibody (antibody, human IgG1, kappa, L234A L235A)
heavy: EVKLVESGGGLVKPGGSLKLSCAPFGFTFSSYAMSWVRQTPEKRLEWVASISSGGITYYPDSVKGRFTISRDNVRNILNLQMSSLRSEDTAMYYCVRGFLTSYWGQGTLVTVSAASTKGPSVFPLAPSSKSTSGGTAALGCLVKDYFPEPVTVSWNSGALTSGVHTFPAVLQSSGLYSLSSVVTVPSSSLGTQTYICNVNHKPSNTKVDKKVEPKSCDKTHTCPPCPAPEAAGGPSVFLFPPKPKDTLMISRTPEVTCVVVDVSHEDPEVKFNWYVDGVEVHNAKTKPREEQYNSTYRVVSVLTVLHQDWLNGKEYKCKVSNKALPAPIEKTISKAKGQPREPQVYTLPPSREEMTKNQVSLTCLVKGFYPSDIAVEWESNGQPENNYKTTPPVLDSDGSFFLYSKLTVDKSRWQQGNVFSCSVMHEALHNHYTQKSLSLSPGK
light: DVVMTQTPLTLSVTIGQPASISCKSSQSLLNSDGKTYLNWLLQRPGQSPKRLISLVSKLDSGVPDRFTGSGSGTDFTLKISRVEAEDLGVYYCWQGTHFWTFGGGTKLEIKRTVAAPSVFIFPPSDEQLKSGTASVVCLLNNFYPREAKVQWKVDNALQSGNSQESVTEQDSKDSTYSLSSTLTLSKADYEKHKVYACEVTHQGLSSPVTKSFNRGEC
notes: Human IgG1 LALA constant region, made in ExpiCHO-S cells; also called 3B9-hIgG1LALA
B5: human-murine chimeric 10D10 antibody (antibody, human IgG1, kappa, L234A L235A)
heavy: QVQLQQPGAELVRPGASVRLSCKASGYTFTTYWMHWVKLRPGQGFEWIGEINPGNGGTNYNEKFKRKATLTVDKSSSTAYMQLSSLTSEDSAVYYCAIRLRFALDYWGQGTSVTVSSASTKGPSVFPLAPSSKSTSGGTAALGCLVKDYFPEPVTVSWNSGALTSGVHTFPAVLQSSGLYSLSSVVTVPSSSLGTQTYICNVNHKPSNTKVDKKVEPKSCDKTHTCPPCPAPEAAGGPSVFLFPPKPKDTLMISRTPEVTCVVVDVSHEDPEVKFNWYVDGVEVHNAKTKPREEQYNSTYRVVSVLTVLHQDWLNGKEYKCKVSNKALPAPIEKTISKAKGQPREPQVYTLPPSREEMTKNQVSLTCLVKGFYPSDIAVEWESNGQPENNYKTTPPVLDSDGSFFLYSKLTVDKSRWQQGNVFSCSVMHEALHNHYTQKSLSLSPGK
light: DIQMTQTTSSLSASLGDRVTISCRASQDVRNFLNWFQQKPDGTVKLLIYFTSRLHSGVPSRFSGSGSGTDYSLTISNLEQEDIATYFCQQGNTLPPTFGGGTKLEIKRTVAAPSVFIFPPSDEQLKSGTASVVCLLNNFYPREAKVQWKVDNALQSGNSQESVTEQDSKDSTYSLSSTLTLSKADYEKHKVYACEVTHQGLSSPVTKSFNRGEC
notes: Human IgG1 LALA constant region, made in ExpiCHO-S cells; also called 10D10-hIgG1LALA
B6: human-murine chimeric 10E10 antibody (antibody, human IgG1, kappa, L234A L235A)
heavy: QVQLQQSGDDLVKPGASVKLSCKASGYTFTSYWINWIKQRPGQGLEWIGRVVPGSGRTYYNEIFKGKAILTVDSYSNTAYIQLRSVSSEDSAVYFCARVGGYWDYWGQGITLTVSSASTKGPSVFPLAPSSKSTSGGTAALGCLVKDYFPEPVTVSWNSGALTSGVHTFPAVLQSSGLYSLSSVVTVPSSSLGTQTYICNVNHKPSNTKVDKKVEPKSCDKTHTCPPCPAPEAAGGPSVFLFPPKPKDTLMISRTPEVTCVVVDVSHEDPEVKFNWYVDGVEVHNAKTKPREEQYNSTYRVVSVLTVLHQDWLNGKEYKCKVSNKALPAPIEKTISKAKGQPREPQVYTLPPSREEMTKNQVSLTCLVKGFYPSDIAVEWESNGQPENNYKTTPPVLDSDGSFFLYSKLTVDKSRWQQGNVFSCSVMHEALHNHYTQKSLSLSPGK
light: QIVLSQSPAILSASPGEKVTMACRASSSVNYIHWYQQRPGSSPKPWIYATSSLASGVPARFSGSGSGTSYSLTISRVEAEDAATYYCQQWSSNPYTFGGGTKLEMKRTVAAPSVFIFPPSDEQLKSGTASVVCLLNNFYPREAKVQWKVDNALQSGNSQESVTEQDSKDSTYSLSSTLTLSKADYEKHKVYACEVTHQGLSSPVTKSFNRGEC
notes: Human IgG1 LALA constant region, made in ExpiCHO-S cells; also called 10E10-hIgG1LALA
B7: humanized 10D10 antibody (antibody, human IgG1, kappa, L234A L235A, V domains shown)
VH: QVQLVQSGAEVKKPGASVKVSCKASGYTFTTYWMHWVKQAPGQGLEWIGEINPGNGGTNYNEKFKRRATMTVDKSISTAYMELSRLRSDDTAVYYCAIRLRFALDYWGQGTLVTVSS
VL: DIQMTQSPSSLSASVGDRVTITCRASQDVRNFLNWFQQKPGKAPKLLIYFTSRLHSGVPSRFSGSGSGTDYTFTISSLQPEDIATYFCQQGNTLPPTFGGGTKLEIKR
notes: human IgG1 LALA; also called h10D10-hIgG1LALA; humanized NKp46 antibody

Molecular target: T1, NKp46 on human peripheral blood mononuclear cells (human, UniProt O76036 22-304)
T1 construct: also called human PBMCs
T1 sequence (O76036 22-304 Q82K limits assumed): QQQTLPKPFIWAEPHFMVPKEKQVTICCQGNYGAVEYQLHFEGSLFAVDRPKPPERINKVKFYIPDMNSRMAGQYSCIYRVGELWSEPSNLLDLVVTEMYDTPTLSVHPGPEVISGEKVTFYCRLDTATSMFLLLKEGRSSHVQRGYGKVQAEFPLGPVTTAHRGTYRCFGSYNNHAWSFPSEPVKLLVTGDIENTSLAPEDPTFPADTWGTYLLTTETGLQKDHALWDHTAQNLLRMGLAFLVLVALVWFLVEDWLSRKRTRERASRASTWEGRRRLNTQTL
Assay: flow cytometry on human PBMCs
Experimental: The binding characteristics of the three NKp46 antibodies (10D10 antibody, 10E10 antibody, and 3B9 antibody) obtained in Example 1 were detected using the flow cytometry assay. Murine NKp46 antibodies were added to human peripheral blood mononuclear cells. The signal intensity after antibody addition was used to determine the binding characteristics of the antibody to PBMCs. The specific steps were as follows:
Human peripheral blood mononuclear cells (PBMCs) were diluted to 2×10⁶ cells/mL with PBS and added to a 1.5 mL EP tube at 100 μL/tube. Goat serum was added at […] and was blocked at 4° C. for 30 min. NKp46 antibodies at different concentrations gradients were added and incubated at 4° C. for 30 min. The EP tube was added with 1 mL of PBS, and centrifuged at 3500 rpm at 4° C. for 5 min. The supernatant was discarded and the pellet was washed once more with PBS. After centrifugation, the supernatant was discarded, and the cells were resuspended with 100 μL/tube of PBS, and 0.1 μL/tube of Alexa-647-labeled goat anti-mouse secondary antibody (Biolegend) and 0.5 μL/tube of FITC-labeled CD3 antibody were added, and incubated at 4° C. in the dark for 30 min. The pellet was washed twice with PBS and the supernatant was discarded after centrifugation. The cells were resuspended with 200 μL/tube of PBS and detected by flow cytometry.

Binding result, binds:
B1
B2
B3

Molecular target: T2, cynomolgus monkey-His fusion protein (cynomolgus monkey, UniProt Q95JB9 22-257)
T2 construct: extracellular domain; also called cynomolgus monkey NKp46; monkey NKp46; not shown: His tag
T2 sequence (Q95JB9 22-257): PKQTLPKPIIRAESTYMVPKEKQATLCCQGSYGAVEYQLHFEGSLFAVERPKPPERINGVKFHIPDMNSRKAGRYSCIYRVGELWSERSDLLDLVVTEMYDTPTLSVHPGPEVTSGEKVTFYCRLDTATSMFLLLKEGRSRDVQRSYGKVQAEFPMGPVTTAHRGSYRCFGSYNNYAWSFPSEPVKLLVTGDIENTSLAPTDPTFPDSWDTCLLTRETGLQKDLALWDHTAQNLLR
Assay: ELISA, NKp46-His coated, anti-human HRP

Binding result, binds:
B4
B5
B6
B7

Molecular target: T3, human NKp46-His fusion protein (human, UniProt O76036 22-258)
T3 construct: Bought from Acro; also called NKp46 extracellular region His tag fusion protein; not shown: His tag
T3 sequence (O76036 22-258 Q82K): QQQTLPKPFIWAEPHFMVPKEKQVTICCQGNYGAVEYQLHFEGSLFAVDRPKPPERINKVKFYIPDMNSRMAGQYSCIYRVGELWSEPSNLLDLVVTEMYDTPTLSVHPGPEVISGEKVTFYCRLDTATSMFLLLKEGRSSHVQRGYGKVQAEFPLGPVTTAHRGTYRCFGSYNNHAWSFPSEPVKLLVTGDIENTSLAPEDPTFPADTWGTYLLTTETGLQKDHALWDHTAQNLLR
Assay: ELISA, NKp46-His coated, anti-human HRP

Binding result, binds:
B4
B5
B6
B7

Molecular target: T1, NKp46 on human peripheral blood …
Assay: flow cytometry on PBMCs
Experimental: (§1) The binding characteristics of the two human-murine chimeric NKp46 antibodies (i.e., human-murine chimeric 10D10 antibody and human-murine chimeric 3B9 antibody) prepared in Example 4 were detected using the flow cytometry assay. Human-murine chimeric NKp46 antibodies were added to human and cynomolgus monkey peripheral blood mononuclear cells. The signal intensity after antibody addition was used to determine the binding characteristics of the antibody to PBMCs. The specific steps were as follows:
(§2) Human and cynomolgus monkey peripheral blood mononuclear cells (PBMCs) were diluted to 2×10⁶ cells/mL with PBS and added to 1.5 mL EP tube at 100 μL/tube. Goat serum was added at 10 μL/tube and was blocked at 4° C. for 30 min. NKp46 antibodies at different concentrations gradients and the positive control antibody (hIgG1 LALA) were added and incubated at 4° C. for 30 min. The EP tube was added with 1 mL of PBS, and centrifuged at 3500 rpm at 4° C. for 5 min. The supernatant was discarded and the pellet was washed once more with PBS. After centrifugation, the supernatant was discarded, and the cells were resuspended with 100 IL/tube of PBS, and 0.1 μL/tube of Alexa-647 labeled rat anti-human IgG-Fc secondary antibody (Biolegend) and 0.5 μL/tube BV510-labeled CD16 antibody were added, and incubated at 4° C. in the dark for 30 min. The pellet was washed twice with PBS and the supernatant was discarded after centrifugation. The cells were resuspended with 200 μL/tube of PBS and detected by flow cytometry.

Binding result, binds:
B4
B5

Molecular target: T4, NKp46 on cynomolgus monkey peripheral blood mononuclear cells (cynomolgus monkey, UniProt Q95JB9 22-306)
T4 construct: whole, on cells; also called cynomolgus monkey PBMCs
T4 sequence (Q95JB9 22-306): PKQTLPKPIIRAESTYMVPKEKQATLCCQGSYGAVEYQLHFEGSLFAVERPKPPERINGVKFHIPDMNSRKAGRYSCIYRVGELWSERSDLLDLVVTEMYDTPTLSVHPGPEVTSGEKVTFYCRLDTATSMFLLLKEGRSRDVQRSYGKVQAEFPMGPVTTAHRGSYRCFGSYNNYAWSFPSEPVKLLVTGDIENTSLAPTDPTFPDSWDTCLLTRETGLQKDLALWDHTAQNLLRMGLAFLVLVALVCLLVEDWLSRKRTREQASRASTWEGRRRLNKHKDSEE
Assay: flow cytometry on PBMCs
Experimental: as §1, §2

Binding result, binds:
B4
B5

Molecular target: T2, cynomolgus monkey-His fusion protein
Assay: ELISA, NKp46-His coated, anti-mouse HRP
Text: (§3) The binding characteristics of the three NKp46 antibodies (10D10 antibody, 10E10 antibody, and 3B9 antibody) obtained in Example 1 were detected using the ELISA assay. The NKp46 extracellular region His tag fusion protein (NKp46-His) was coated into a 96-well plate. The signal intensity after antibody addition was used to determine the binding characteristics of the antibody to NKp46. The specific steps were as follows:
(§4) The human NKp46-His fusion protein (purchased from Acro) and cynomolgus monkey-His fusion protein (purchased from Acro) were diluted to 1 μg/mL with PBS buffer, added to a 96-well plate at 100 μL/well, and left overnight at 4° C. The PBS buffer solution was removed from the 96-well plate. The plate was washed 6 times with PBST (pH 7.2, PBS containing 0.1% Tween 20) buffer solution. PBS/10% BSA was added at 200 μL/well and incubated at 37° C. for 2 hours for blocking. The blocking solution was removed. The plate was washed 6 times with PBST. NKp46 antibody to be tested diluted to an appropriate concentration with PBST/0.05% BSA was added at 100 μL/well, and incubated for 1 h at 37° C. The reaction system was removed. The plate was washed 6 times with PBST. HRP (horseradish peroxidase)-labeled anti-mouse secondary antibody diluted with PBST/0.05% BSA was added at 100 μL/well and incubated for 1 h at 37° C. The plate was washed 6 times with PBST, and TMB (tetramethylbenzidine) was added at 80 μL/well. After 3 min of incubation at room temperature, 4M sulfuric acid was added at 80 μL/well to terminate the reaction. The absorbance at […] was read with a microplate reader.

Binding result, binds:
B1
B2
B3

Molecular target: T3, human NKp46-His fusion protein
Assay: ELISA, NKp46-His coated, anti-mouse HRP
Text: as §3, §4

Binding result, binds:
B1
B2
B3
